Data reported in US20040253214A1.

Target: bovine EGF receptor on MDBK cells (bovine) (UniProt F1N7F3)
Assay: cell-based or functional assay

For “EXGaLVMoT chimeric envelope (EGF displayed through a factor Xa-cleavable linker as an N-terminal extension of the Gibbon Ape Leukaemia virus SU glycoprotein), on retroviral vector particles (from UniProt P01133 971-1023; P21415 43-653; P03385 633-665)”, the Titre of GaLV vectors on EGF-R positive cells, MDBK, +Xa (displayed EGF domain cleaved with factor Xa before infection) was 12 efu/ml and the Titre of GaLV vectors on EGF-R positive cells, MDBK, -Xa was less than 1 efu/ml.
